Measurements: patent publication CN113754773A (SUNSHINE GUOJIAN PHARMACEUTICAL SHANGHAI CO LTD, dated 2021)

Columns and labels:
PDL1-ECD-His蛋白 = biological target: T1, PDL1-ECD-His蛋白 (human, UniProt Q9NZQ7 19-238); assay: ELISA, PDL1-ECD-His coated, HRP mouse anti-human Fab
T1 construct: extracellular domain; Made in house in HEK-293E cells; also called PD-L1抗原

PD-L1 on N87-PDL1 cells = biological target: T2, PD-L1 on N87-PDL1 cells (UniProt Q9NZQ7 19-290, limits assumed); assay: flow cytometry on N87-PDL1 cells, goat anti-human IgG-FITC
T2 construct: whole, on cells; also called N87-PDL1细胞
T2 sequence (Q9NZQ7 19-290 limits assumed): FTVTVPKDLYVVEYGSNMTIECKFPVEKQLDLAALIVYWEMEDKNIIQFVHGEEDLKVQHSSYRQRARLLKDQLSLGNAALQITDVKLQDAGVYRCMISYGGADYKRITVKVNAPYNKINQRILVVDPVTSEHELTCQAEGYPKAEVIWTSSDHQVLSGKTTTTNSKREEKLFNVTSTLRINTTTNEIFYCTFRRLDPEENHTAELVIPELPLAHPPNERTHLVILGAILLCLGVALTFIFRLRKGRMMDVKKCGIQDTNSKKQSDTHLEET

[1] = biological target: PD-L1 on PD-L1 aAPC/CHO-K1 cells (Promega PD-1/PD-L1 Blockade Bioassay) (UniProt Q9NZQ7 19-290, limits assumed); assay: cell-based or functional assay
Sequence of PD-L1 on PD-L1 aAPC/CHO-K1 cells (Promega PD-1/PD-L1 Blockade Bioassay) (Q9NZQ7 19-290 limits assumed): as above

PD1-ECD-hFc蛋白 [2] = biological target: T3, PD1-ECD-hFc蛋白 (human, UniProt Q15116 25-170); assay: ELISA, PD1-ECD-hFc coated, HRP mouse anti-human Fab
T3 construct: extracellular domain; Made in house in HEK-293E cells; also called PD-1抗原; not shown: hFc at the C-terminus
T3 sequence (Q15116 25-170): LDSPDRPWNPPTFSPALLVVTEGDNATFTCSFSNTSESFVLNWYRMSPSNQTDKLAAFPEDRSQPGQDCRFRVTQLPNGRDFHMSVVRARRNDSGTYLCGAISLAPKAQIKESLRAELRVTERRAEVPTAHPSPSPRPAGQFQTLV

[3] = biological target: T4, PD-1 on CHO stable cells (PD-1/CHO) (UniProt Q15116 25-288, limits assumed); assay: flow cytometry on CHO cells stably expressing PD-1, goat anti-human IgG-FITC
T4 construct: whole, on cells; also called 细胞表面表达PD-1的CHO稳转细胞; PD-1/CHO细胞
T4 sequence (Q15116 25-288 limits assumed): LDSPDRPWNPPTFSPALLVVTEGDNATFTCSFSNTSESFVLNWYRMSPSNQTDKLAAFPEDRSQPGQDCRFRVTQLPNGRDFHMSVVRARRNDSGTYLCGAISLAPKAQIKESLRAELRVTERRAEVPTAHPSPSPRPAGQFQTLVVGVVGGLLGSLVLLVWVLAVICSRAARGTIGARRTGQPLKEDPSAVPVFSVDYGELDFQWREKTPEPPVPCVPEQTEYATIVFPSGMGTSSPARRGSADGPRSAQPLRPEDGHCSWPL

PD1-ECD-hFc蛋白 [4] = biological target: T3, PD1-ECD-hFc蛋白; assay: bridging ELISA: PD1-ECD-hFc coated, antibody titrated, then PDL1-ECD-His at 1000ng/ml, read with HRP-anti-His (both antigens bound at once)
[5] = biological target: PD-1 on PD1 effector cells (Promega PD-1/PD-L1 Blockade Bioassay) (UniProt Q15116 25-288, limits assumed); assay: cell-based or functional assay
Sequence of PD-1 on PD1 effector cells (Promega PD-1/PD-L1 Blockade Bioassay) (Q15116 25-288 limits assumed): as above

T1 sequence (Q9NZQ7 other isoform, or with tags, fused parts or gaps): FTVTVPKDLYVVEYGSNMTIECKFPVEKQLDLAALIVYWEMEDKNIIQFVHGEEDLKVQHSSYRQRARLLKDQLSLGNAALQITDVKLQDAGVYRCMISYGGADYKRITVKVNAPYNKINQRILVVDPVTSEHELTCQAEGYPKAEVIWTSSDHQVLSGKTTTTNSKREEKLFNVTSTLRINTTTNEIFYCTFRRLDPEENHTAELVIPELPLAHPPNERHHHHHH

EC50 (PDL1-ECD-His蛋白) [pM]	EC50 (PD-L1 on N87-PDL1 cells) [pM]	IC50, luminescence (PD-1/PD-L1 Blockade Bioassay) [1] [pM]	EC50 (PD1-ECD-hFc蛋白 [2]) [pM]	EC50 [3] [pM]	EC50 (PD1-ECD-hFc蛋白 [4]) [pM]	IC50, luminescence (PD-1/PD-L1 Blockade Bioassay) [5] [pM]	Binder
270	110	420	–	–	–	–	抗PD-L1单抗 (M8) (antibody, human IgG1, kappa, V domains shown, also called 抗人PD-L1单抗M8; anti-PD-L1 mAb) VH: QVQLQQSGGGLVKPSQSLSLTCTVSGFSLTSYGVHWVRQPPGKGLEWIGLIWSGGGTDYNPSLKSRLTISRDTSKNQVSFKISSLTAADTAVYYCARQLGLRAMDYWGQGTSVTVSS VL: EIVLTQSPDFLSVTPKEKVTITCRASQSIGTTIHWYQQKPDQSPKLLIKYASQSFSGVPSRFSGSGSGTDFTLTINSVEAEDAATYYCQQSNSWPLTFGAGTKLEIKR
290	150	240	300	1430	360	240	anti-PD1×PDL1 BsAb (bispecific antibody, human IgG1, kappa, also called 抗PD1×PDL1双抗; 抗PD1×PDL1双特异性抗体) heavy: not shown light: EIVLTQSPDFLSVTPKEKVTITCRASQSIGTTIHWYQQKPDQSPKLLIKYASQSFSGVPSRFSGSGSGTDFTLTINSVEAEDAATYYCQQSNSWPLTFGAGTKLEIKRTVAAPSVFIFPPSDEQLKSGTASVVCLLNNFYPREAKVQWKVDNALQSGNSQESVTEQDSKDSTYSLSSTLTLSKADYEKHKVYACEVTHQGLSSPVTKSFNRGEC
